In EP0480381A1 (NIPPON CHEMIPHAR CO., LTD., dated 1992):

T1: rat endothelin receptor (rat)
T1 sequence (P26684 whole entry, looked up): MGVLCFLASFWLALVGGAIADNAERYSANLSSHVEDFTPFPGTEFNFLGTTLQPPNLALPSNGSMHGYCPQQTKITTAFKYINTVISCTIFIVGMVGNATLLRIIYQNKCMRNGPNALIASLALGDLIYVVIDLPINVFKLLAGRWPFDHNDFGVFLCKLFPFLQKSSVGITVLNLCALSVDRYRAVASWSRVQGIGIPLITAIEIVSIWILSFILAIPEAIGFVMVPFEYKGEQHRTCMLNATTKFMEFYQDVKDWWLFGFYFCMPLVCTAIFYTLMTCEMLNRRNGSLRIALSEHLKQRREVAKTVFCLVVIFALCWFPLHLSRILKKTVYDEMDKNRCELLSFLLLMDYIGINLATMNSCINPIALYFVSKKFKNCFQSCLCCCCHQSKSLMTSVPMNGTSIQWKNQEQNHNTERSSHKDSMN


Molecular target: T1, rat endothelin receptor
Assay: cell-based or functional assay

Binder	increase of calcium concentration in cytoplasm (fura-2), EC50 [nM]
CSCSSLMDKECVYFCHLDIIW (peptide, UniProt P05305 53-73, looked up) [endothelin-1]	~0.02
CTCFTYKDKECVYYCHLDIIW (peptide, UniProt P14138 97-117, looked up) [endothelin-3]	~0.02
